Experimental data reported in US8445006B2, “Biomolecular coating for implants” (Georgia Tech Research Corporation, priority 2006, dated 2013).

Experiments:
[1] = target: T1, α5β1 integrin (Mus musculus, UniProt P09055+P11688); test: Crosslinking/extraction immunostaining of bound integrin; type: cell-based, murine; settings: 4 h on saturated ligand-functionalized SAMs
T1 construct: endogenous in cells; host or cells: MC3T3-E1 murine osteoblast-like cells
Experimental: (§1) Surfaces were prepared on either 6-well plate lids or 35 mm tissue culture dishes, and cells seeded at 75 cells/mm^2 in serum-containing media for 4 h at 37° C. For integrin staining, a cross-linking/extraction biochemical method that selectively isolates bound integrins was employed. Cells were washed, and 1.0 mM DTSSP (Pierce) was added for 15 min to cross-link ligated integrins. After quenching with 50 mM Tris, uncrosslinked cellular components were extracted in 0.1% SDS supplemented with protease inhibitors (350 μg/ml PMSF). Samples were then blocked in 5% FBS for 1 h and incubated with integrin-specific antibodies for 1 h at 37° C. Fluorochrome-labeled secondary antibodies were then incubated for 1 h at 37° C. Following washing, samples were mounted on slides with Gel/Mount mounting media (Biomeda, Foster City, Calif.). For staining of focal adhesions, cells were extracted in 0.5% Triton X-100 in ice-cold cytoskeleton buffer (50 mM NaCl, 3 mM MgCl2, 150 mM sucrose, 20 μg/ml aprotonin, 1 μg/ml leupeptin, 1 mM PMSF, 50 mM Tris, pH 6.8) for 2 min and fixed in cold 3.7% formaldehyde in DPBS for 5 min. Cultures were blocked, subsequently incubated in anti-vinculin monoclonal antibody (1:70 in 5% FBS) and fluorochrome-labeled secondary antibodies for 1 h, and samples mounted on slides.
(§2) Since MC3T3-E1 cells assemble robust focal adhesions containing clustered integrins and intracellular structural and signaling proteins, integrin binding and focal adhesion assembly on the engineered interfaces was examined by staining for different integrin subunits and vinculin, which localizes to focal adhesions. MC3T3-E1 cells were allowed to adhere on each saturated ligand-functionalized support for 4 h and integrin binding was evaluated via a crosslinking/extraction and immunostaining protocol, which isolates integrins ligated to the ligand. […] The crosslinking and extraction technique relies in coupling free amines on both the receptor and ligand. Since the tethered RGD has no free amine, the αvβ3 staining in the RGD surfaces is attributed to focal adhesions that were not completely extracted. […] Both surfaces assembled focal adhesions containing vinculin.

[2] = target: T2, αvβ3 integrin (Mus musculus, UniProt O54890+P43406); test: as above; type: cell-based, murine; settings: 4 h on saturated ligand-functionalized SAMs
T2 construct: endogenous in cells; host or cells: MC3T3-E1 murine osteoblast-like cells
T2 sequence (P43406 31-885 limits assumed): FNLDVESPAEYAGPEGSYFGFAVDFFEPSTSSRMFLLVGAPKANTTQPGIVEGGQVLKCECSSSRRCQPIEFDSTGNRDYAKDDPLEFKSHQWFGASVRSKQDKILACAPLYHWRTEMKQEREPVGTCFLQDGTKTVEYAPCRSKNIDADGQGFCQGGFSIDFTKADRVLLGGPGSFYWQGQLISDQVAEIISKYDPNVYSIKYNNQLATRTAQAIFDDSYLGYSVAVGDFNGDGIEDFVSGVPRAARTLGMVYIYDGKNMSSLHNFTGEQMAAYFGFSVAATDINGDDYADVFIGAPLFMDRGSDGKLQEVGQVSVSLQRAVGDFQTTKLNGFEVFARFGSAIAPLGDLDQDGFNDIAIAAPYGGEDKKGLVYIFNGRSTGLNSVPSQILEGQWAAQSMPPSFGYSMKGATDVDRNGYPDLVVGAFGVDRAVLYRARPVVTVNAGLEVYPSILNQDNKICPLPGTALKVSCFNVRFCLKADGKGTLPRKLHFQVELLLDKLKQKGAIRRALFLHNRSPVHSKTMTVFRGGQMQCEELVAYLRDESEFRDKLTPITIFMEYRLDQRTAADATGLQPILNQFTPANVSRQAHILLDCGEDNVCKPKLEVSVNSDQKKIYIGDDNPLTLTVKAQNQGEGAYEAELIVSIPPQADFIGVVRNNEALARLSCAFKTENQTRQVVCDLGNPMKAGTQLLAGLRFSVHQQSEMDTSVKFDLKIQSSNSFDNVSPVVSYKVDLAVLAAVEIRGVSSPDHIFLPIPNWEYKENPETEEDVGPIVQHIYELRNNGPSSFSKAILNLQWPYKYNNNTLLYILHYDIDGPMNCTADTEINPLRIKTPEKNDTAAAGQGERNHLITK
T2 sequence (P43406 887-1044 limits assumed): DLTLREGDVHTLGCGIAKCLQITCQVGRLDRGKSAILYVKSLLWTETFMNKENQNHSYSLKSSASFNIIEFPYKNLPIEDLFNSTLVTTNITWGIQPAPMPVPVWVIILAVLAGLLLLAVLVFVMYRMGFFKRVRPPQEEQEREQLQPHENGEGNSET
T2 sequence (O54890 26-787): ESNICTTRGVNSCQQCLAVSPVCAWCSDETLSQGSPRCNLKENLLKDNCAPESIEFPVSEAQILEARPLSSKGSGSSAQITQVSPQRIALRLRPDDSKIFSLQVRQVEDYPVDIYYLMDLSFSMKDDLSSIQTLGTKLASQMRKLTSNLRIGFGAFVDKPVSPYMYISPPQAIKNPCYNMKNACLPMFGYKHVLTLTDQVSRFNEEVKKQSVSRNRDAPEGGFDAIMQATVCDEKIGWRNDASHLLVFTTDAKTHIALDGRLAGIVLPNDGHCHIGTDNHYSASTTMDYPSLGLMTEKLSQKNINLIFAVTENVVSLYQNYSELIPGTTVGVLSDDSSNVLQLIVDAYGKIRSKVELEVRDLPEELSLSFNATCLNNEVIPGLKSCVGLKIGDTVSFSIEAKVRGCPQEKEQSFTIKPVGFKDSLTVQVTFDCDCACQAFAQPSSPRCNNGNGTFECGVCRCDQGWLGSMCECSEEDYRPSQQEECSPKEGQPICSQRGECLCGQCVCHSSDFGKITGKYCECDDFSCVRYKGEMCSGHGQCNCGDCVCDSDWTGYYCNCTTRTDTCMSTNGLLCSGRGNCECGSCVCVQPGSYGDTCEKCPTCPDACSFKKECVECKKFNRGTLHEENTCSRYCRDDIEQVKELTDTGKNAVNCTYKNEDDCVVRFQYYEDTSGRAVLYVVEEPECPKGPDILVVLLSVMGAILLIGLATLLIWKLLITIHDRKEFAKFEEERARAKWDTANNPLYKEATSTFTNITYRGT
Experimental: as §1, §2

T1 sequence (P11688 45-898 limits assumed): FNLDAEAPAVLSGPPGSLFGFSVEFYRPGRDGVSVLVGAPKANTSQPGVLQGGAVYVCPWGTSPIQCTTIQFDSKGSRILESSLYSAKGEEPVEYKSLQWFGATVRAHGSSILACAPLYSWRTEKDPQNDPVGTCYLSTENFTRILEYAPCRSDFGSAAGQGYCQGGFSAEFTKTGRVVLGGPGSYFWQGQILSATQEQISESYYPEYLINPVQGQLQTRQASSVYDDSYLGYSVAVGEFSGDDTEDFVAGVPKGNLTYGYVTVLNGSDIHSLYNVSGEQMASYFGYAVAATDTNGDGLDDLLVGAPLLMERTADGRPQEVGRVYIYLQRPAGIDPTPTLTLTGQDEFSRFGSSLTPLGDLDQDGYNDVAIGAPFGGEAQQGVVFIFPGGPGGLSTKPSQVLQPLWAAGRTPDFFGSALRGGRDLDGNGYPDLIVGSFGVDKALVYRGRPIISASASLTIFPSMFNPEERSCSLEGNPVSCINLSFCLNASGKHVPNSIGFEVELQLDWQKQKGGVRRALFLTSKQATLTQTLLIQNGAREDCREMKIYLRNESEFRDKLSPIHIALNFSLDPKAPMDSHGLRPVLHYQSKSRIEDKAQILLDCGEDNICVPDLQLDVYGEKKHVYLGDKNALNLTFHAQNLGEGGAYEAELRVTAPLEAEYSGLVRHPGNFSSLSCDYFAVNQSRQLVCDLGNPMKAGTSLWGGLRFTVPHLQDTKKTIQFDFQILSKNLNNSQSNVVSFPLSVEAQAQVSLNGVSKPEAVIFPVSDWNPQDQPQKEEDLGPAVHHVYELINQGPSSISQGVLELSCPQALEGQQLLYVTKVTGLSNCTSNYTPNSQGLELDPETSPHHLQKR
T1 sequence (P11688 899-1053 limits assumed): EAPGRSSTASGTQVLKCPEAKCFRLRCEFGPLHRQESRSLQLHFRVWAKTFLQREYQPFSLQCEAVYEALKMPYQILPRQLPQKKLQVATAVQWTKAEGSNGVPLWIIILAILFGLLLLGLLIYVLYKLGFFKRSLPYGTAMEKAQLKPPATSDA
T1 sequence (P09055 21-798): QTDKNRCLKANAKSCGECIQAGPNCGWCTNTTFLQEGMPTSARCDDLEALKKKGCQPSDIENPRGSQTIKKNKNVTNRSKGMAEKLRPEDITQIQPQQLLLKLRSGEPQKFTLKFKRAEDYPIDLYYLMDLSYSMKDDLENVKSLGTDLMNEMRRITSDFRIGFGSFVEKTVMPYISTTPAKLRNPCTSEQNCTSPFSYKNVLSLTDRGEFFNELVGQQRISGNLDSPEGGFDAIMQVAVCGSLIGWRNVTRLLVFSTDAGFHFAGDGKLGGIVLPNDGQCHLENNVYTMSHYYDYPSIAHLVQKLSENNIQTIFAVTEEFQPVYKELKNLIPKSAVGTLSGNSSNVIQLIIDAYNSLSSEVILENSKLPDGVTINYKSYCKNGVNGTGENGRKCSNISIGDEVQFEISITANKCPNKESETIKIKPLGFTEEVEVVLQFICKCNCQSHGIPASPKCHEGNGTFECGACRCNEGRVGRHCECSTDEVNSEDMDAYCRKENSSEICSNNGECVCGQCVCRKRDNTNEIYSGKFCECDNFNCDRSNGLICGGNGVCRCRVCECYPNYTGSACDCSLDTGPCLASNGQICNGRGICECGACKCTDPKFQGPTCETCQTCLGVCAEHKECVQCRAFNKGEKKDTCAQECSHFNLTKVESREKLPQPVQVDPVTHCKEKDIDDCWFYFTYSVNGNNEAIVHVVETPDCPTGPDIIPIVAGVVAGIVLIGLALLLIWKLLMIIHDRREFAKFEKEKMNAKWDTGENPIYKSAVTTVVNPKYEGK

Row | Substance | bound α5β1 integrin staining [1] | bound αvβ3 integrin staining [2]
1 | FNIII7-10: monobiotinylated recombinant fibronectin fragment spanning the 7-10th type III repeats of fibronectin; α5β1 integrin ligand | robust, well-defined adhesive structures containing α5β1 integrins | minimal αvβ3 binding
2 | GRGDSPC [RGD peptide, linear RGD oligopeptide purchased from BACHEM; primarily supports αvβ3-mediated adhesion, reference compound] | little staining for α5β1 | clustering of αvβ3
